Experimental data published in patent US20170044236A1 (GENERAL HOSPITAL, published 2017).
No end group written: not given here.

B1: wild-type integrin αVβ3 on cells (K562-αVβ3, M21, HEK293T) (receptor)
chain 1: FNLDVDSPAEYSGPEGSYFGFAVDFFVPSASSRMFLLVGAPKANTTQPGIVEGGQVLKCDWSSTRRCQPIEFDATGNRDYAKDDPLEFKSHQWFGASVRSKQDKILACAPLYHWRTEMKQEREPVGTCFLQDGTKTVEYAPCRSQDIDADGQGFCQGGFSIDFTKADRVLLGGPGSFYWQGQLISDQVAEIVSKYDPNVYSIKYNNQLATRTAQAIFDDSYLGYSVAVGDFNGDGIDDFVSGVPRAARTLGMVYIYDGKNMSSLYNFTGEQMAAYFGFSVAATDINGDDYADVFIGAPLFMDRGSDGKLQEVGQVSVSLQRASGDFQTTKLNGFEVFARFGSAIAPLGDLDQDGFNDIAIAAPYGGEDKKGIVYIFNGRSTGLNAVPSQILEGQWAARSMPPSFGYSMKGATDIDKNGYPDLIVGAFGVDRAILYRARPVITVNAGLEVYPSILNQDNKTCSLPGTALKVSCFNVRFCLKADGKGVLPRKLNFQVELLLDKLKQKGAIRRALFLYSRSPSHSKNMTISRGGLMQCEELIAYLRDESEFRDKLTPITIFMEYRLDYRTAADTTGLQPILNQFTPANISRQAHILLDCGEDNVCKPKLEVSVDSDQKKIYIGDDNPLTLIVKAQNQGEGAYEAELIVSIPLQADFIGVVRNNEALARLSCAFKTENQTRQVVCDLGNPMKAGTQLLAGLRFSVHQQSEMDTSVKFDLQIQSSNLFDKVSPVVSHKVDLAVLAAVEIRGVSSPDHIFLPIPNWEHKENPETEEDVGPVVQHIYELRNNGPSSFSKAMLHLQWPYKYNNNTLLYILHYDIDGPMNCTSDMEINPLRIKISSLQTTEKNDTVAGQGERDHLITKRDLALSEGDIHTLGCGVAQCLKIVCQVGRLDRGKSAILYVKSLLWTETFMNKENQNHSYSLKSSASFNVIEFPYKNLPIEDITNSTLVTTNVTWGIQPAPMPVPVWVIILAVLAGLLLLAVLVFVMYRMGFFKRVRPPQEEQEREQLQPHENGEGNSET
chain 2: GPNICTTRGVSSCQQCLAVSPMCAWCSDEALPLGSPRCDLKENLLKDNCAPESIEFPVSEARVLEDRPLSDKGSGDSSQVTQVSPQRIALRLRPDDSKNFSIQVRQVEDYPVDIYYLMDLSYSMKDDLWSIQNLGTKLATQMRKLTSNLRIGFGAFVDKPVSPYMYISPPEALENPCYDMKTTCLPMFGYKHVLTLTDQVTRFNEEVKKQSVSRNRDAPEGGFDAIMQATVCDEKIGWRNDASHLLVFTTDAKTHIALDGRLAGIVQPNDGQCHVGSDNHYSASTTMDYPSLGLMTEKLSQKNINLIFAVTENVVNLYQNYSELIPGTTVGVLSMDSSNVLQLIVDAYGKIRSKVELEVRDLPEELSLSFNATCLNNEVIPGLKSCMGLKIGDTVSFSIEAKVRGCPQEKEKSFTIKPVGFKDSLIVQVTFDCDCACQAQAEPNSHRCNNGNGTFECGVCRCGPGWLGSQCECSEEDYRPSQQDECSPREGQPVCSQRGECLCGQCVCHSSDFGKITGKYCECDDFSCVRYKGEMCSGHGQCSCGDCLCDSDWTGYYCNCTTRTDTCMSSNGLLCSGRGKCECGSCVCIQPGSYGDTCEKCPTCPDACTFKKECVECKKFDREPYMTENTCNRYCRDEIESVKELKDTGKDAVNCTYKNEDDCVVRFQYYEDSSGKSILYVVEEPECPKGPDILVVLLSVMGAILLIGLAALLIWKLLITIHDRKEFAKFEEERARAKWDTANNPLYKEATSTFTNITYRGT
notes: also called WT αVβ3; cellular αVβ3

How the values were obtained:
[1] = target: T1, wild-type 10th type-III RGD-domain of human fibronectin (wtFN10) (human, UniProt P02751 1539-1631); assay: M21 cells, unlabeled FN10, AP5 read-out by flow cytometry
T1 construct: Expressed in bacteria with an N-terminal His tag (S1417-T1509) and a thrombin cleavage site; also called wild-type FN10
Protocol: (§1) K562-αVβ3 cells, transiently transfected HEK293T or αVβ3⁺ M21 cells (0.5×10⁶ in 100 μl WB) were incubated in the absence or presence of unlabeled soluble FN10 (5 μg) in Ca²⁺/Mg²⁺ or in Mn²⁺ (30 min; at 25° C.). Alexa647-labeled AP5 Fab (plus Alexa488-labeled AP3, when HEK293T cells were used), unlabeled anti-LIBS-1 (all to 10 μg/ml) or LIBS-6 ascites (to 1:50 dilution) were added, and the cells incubated for an additional 30 min before washing. APC-labeled goat anti-mouse Fc-specific antibody was added to anti-LIBS-1- or anti-LIBS-6-bound M21 cells, cells were incubated for an additional 30 min at 4° C. then washed, resuspended, fixed in 4% paraformaldehyde and analyzed by flow cytometry. LIBS epitope expression was measured and expressed as MFI (in case of K562-αVβ3 or M21 cells) and normalized (in case of HEK293T cells) by dividing its MFI by the MFI for Alexa488-labeled AP3, and multiplied by 100.

[2] = target: B1; assay: as above
Protocol: as §1

[3] = target: B1; assay: flow cytometry on K562-αVβ3, culture supernatant, fluoresceinated anti-human Fc mAb, Ca2+/Mg2+
Protocol: (§2) Binding of soluble knottin dimers to αVβ3-K562 cells was expressed as mean fluorescence intensity (MFI), as determined using FlowJo software. […] Alexa647-labeled mAb AP5 Fab (10 μg/ml) was added, and cells incubated for an additional 30 min before washing. APC-labeled goat anti-mouse Fc-specific antibody was added to anti-LIBS-1- or anti-LIBS-6-bound M21 cells for an additional 30 min at 4° C. Cells were then washed, resuspended, fixed in 4% paraformaldehyde and analyzed by flow cytometry. AP5 epitope expression was measured and expressed as MFI.
as §2, with “Cells were washed, resuspended, fixed in 4% paraformaldehyde, and analyzed using FACSCalibur or BD-LSRII flow cytometers (BD Biosciences). Binding” for “Binding”, “Fe-specific” for “Fc-specific”

B1: binds [1].

B2: hFN10/B (designed binder)
chain: SDVPRDLEVVAATPTSLLISWDAPAVTVRYYRITYGETGGNSPVQEFTVPGSKSTATISGLKPGVDYTITVYAVIARGDWNDGSKPISINY
notes: hFN10 with the three residues flanking RGDWN changed to match barbourin; His tag as for hFN10
B2: binds [2].

B3: WT knottin 2.5F-Fc fusion protein (rEETI 2.5F) (Fc fusion)
chain: GCPRPRGDNPPLTCSQDSDCLAGCVCGPNGFCG
modifications: ends and bridges not checked; also: C-terminal His tag on knottin, fused at C-terminus to human IgG Fc, Fc fusion dimer
notes: The order of His tag and Fc is read from 'c-terminal his-tagged ... fused at the c-terminus to the Fc fragment'; also called WT 2.5F; WT rEETI 2.5F; not shown: C-terminal His tag of the knottin; Fc fragment of human IgG
B3: binds [3].

B4: modified knottin 2.5F M1, Fc fusion (Fc fusion)
chain: GCPRPRGDWNPLTCSQDSDCLAGCVCGPNGFCG
modifications: ends and bridges not checked; also: C-terminal His tag, number of His and linker not given here, fused at C-terminus to Fc fragment of human IgG
notes: Made by site-directed mutagenesis of the WT rEETI 2.5F construct; tested as culture supernatant; not shown: C-terminal His tag of the knottin; Fc fragment of human IgG
B4: binds [3].

B5: modified knottin 2.5F M, Fc fusion (Fc fusion)
chain: GCPRPRGDWNEGTCSQDSDCLAGCVCGPNGFCG
modifications: ends and bridges not checked; also: C-terminal His tag, number of His and linker not given here, fused at C-terminus to Fc fragment of human IgG
notes: as for B4
B5: binds [3].
